Measurements taken from patent US20190153078A1 (Sanofi, published 2019).
Substitutions are numbered along the chain they refer to.

B1: B1 antibody (antibody, V domains shown)
VH: EVQLVESGGGLVQPGGSLRLSCAASGFTFRSYWMHWVRQVPGKGLVWVSCINKEGSSTTYADSVKGRFTISRDNAKNTLYLEMNSLRADDTAVYYCLRGYDVDYWGQGTLVTVSS
VL: QAVLTQPSSLSASPGASVSLTCTLRSGINVGTYRIYWYQQKPGSPPRYLLRYKSGLDKHQGSGVPSRFSGSKDDSANAGILFISGLQSEDEADYYCLIWHSSAVVFGGGTKLTVLG
B2: B3 antibody (antibody, V domains shown)
VH: B1 VH with A23S, E82Q
VL: B1 VL with I28V, T32S, D90N, E91D, S101N
B3: B6 antibody (antibody, V domains shown)
VH: EVQLVESGGGLVQPGGSLRLSCAASGFTFTTSTMNWVRQAPGKGLEWVSYITRTSTVIYYADSVKGRFTISRDNAKNSLYLQMSSLRAEDTAVYYCARGVRDIGGNGFDYWGQGTLVTVSS
VL: EIVLTQSPGTLSLSPGERATLSCRASQSVTSSYLAWYQQKTGQAPRLLIYGASSRATGIPDRFSGSGSGTDFTLTIARLEPEDFAVYYCQQYGSSPPYTFGQGTKLEIKR
B4: B5 antibody (antibody, V domains shown)
VH: QVHLQESGPGLVKPSGTLSLTCAVSGGSISYTNWWSWVRLPPGKGLEWIGEIYHSRSTNYNPSLKSRVTMSIDKSKNLFSLKLNSVTAADTAIYYCAKAAYTRDGIQPFDNWGQGTLVTVSS
VL: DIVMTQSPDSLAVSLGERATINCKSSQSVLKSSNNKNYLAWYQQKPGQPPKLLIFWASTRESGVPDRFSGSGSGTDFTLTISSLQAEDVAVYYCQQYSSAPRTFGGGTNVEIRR
B5: B4 antibody (antibody, V domains shown)
VH: EVQLVESGGGLVKPGGSLRVSCAASGFTFSSYSMNWIRQAPGKGLEWVSSISSNSSYIYYADSVKGRFTISRDNAKNSLYLQMNSLRAEDTAVYYCARDRDYSNYLTAWGQGTLVTVSS
VL: QSVLTQPPSVSGAPGQRVTISCTGSSSNIGAGYDVHWYRQLPGTAPKLLIYGKNNRPSGVPNRFSGSKSGTSASLAITGLQAEDEADYYCQSYDSSLSGSVFGGGTKLTVLG
B6: A3 antibody (antibody, V domains shown)
VH: MQLLESGGGLVKPGGSLRLSCAASGFTFSNAWMSWVRQGPGKGLEWVGRIKSKTDGGTTDYAAPVKGRFSISRNDSNNTLFLQMNSLKTEDTAVYYCTTGPQIVVVAGATSRDQPNYYYYGLDVWGLGTTVTVSS
VL: QSVLTQPPSASGTPGQRVTISCSGSSSNIGINTVNWYQQLPGTAPKLLIYKSNLRPSGVPDRFSGSKSGTSASLAISGLRSEDEADYYCAAWDDSLTGLYVFGTGTKVTVLG
B7: A1 antibody (antibody, V domains shown)
VH: QVHLQESGPGLVKPSETLSLTCTVSGDSISTYYWSWIRQPPGKGLEWIGYVYYTGSTNYSPSLEGRVTLSVDTSKNQFSLKLNSVSAADTAVYYCARGAAEWLRFRGFFDYWGQGILVSVSS
VL: EVVLTQSPGTLSLSPGERATLSCRASQSVTNGFLAWYQQKPGQAPRVLIYGASSRATGIPDRFSGSGSGTDFTLTISRLEPEDFAMYYCQQYGLSGTFGQGTKLEIKR
B8: A2 antibody (antibody, V domains shown)
VH: QVQLQESGPGLVKPSETLSLTCTVSGGSISTYYWSWIRQSPGKGLEWMGYIYYSGSTNYNPSLESRVTIAVDTSKNQFSLQLTSVTAADTAVYYCARGAAEWLRFRGFFDSWGQGTLVTVSS
VL: B7 VL with V2N, Q27H, G32N, V47L, A52V, M86V, L94V
B9: A4 antibody (antibody, V domains shown)
VH: QVHLVESGGGVVQPGRSLRLSCATFGLNFSDYGFHWVRQAPGKGLEWVAVTSYDGSNKYYAEFVKGRFTISRDNYKNTVYLQMNSLRLEDTAVYYCARDLAPYNFWSGYGNNWFDPWGQGTLVTVSS
VL: B3 VL with S31G, S32T, Y33S, Y37F, T41P, A77S, P97R, Y98L, Q102G, L106V
B10: A5 antibody (antibody, V domains shown)
VH: B9 VH
VL: EIVMTQSPATLSVSPGERATLSCRASQSISSNLAWYQQKPGQAPRLLIYDASTRATGIPARFSGSGSGTEFTLTISSLQSEDFAVYYCQQYNDWLVTFGQGTKVEIKR

Target: Mutant Toxin B MLD (1-91) + LPETGG + 6X HIS (Clostridium difficile)
Test: BLI (Octet RED96)

B1: no binding.
B2: no binding.

Target: T1, WT Toxin B MLD (1-91) + LPETGG + 6X HIS (Clostridium difficile)
Test: BLI (Octet RED96)

B2: no binding.

Target: T2, C. difficile toxin B from strain VPI10463 (ATCC 43255), toxinotype 0 (Clostridium difficile, UniProt P18177 2-2366)
Test: BLI (Octet Red96), antibody on Protein A sensor, toxin in solution

Point of comparison: B5, Kd 0.121 nM. Against it:
- B3 — 170-fold lower, 0.000726 nM
- B1 — 2.5-fold lower, 0.0477 nM
- B2 — 4-fold higher, 0.487 nM
- B4 — 1.7-fold higher, 0.202 nM

Point of comparison: B1, koff 2.79e-05 s⁻¹. Against it:
- B3 — 53-fold lower, 5.3e-07 s⁻¹
- B2 — 3.4-fold higher, 9.4e-05 s⁻¹
- B4 — 3.4-fold higher, 9.62e-05 s⁻¹
- B5 — 2.3-fold higher, 6.44e-05 s⁻¹

Point of comparison: B4, kon 477000 M⁻¹ s⁻¹. Against it:
- B3 — 1.5-fold higher, 730000 M⁻¹ s⁻¹
- B1 — within 1.5-fold, 585000 M⁻¹ s⁻¹
- B2 — 2.5-fold lower, 193000 M⁻¹ s⁻¹
- B5 — within 1.5-fold, 531000 M⁻¹ s⁻¹

Target: T3, C. difficile toxin A from strain VPI10463 (ATCC 43255), toxinotype 0 (Clostridium difficile, UniProt P16154 1-2710)
Test: as above

Point of comparison: B10, Kd 0.144 nM. Against it:
- B6 — 3.2-fold higher, 0.461 nM
- B7 — lower, < 0.01 nM
- B8 — 33-fold lower, 0.00443 nM
- B9 — 260-fold lower, 0.000557 nM

Point of comparison: B8, koff 1.58e-06 s⁻¹. Against it:
- B6 — 49-fold higher, 7.77e-05 s⁻¹
- B7 — not separable, < 3.75e-06 s⁻¹
- B9 — 5.1-fold lower, 3.09e-07 s⁻¹
- B10 — 28-fold higher, 4.49e-05 s⁻¹

Point of comparison: B10, kon 312000 M⁻¹ s⁻¹. Against it:
- B6 — 1.8-fold lower, 169000 M⁻¹ s⁻¹
- B7 — within 1.5-fold, 375000 M⁻¹ s⁻¹
- B8 — within 1.5-fold, 356000 M⁻¹ s⁻¹
- B9 — 1.8-fold higher, 555000 M⁻¹ s⁻¹

Target: T1, WT Toxin B MLD (1-91) + LPETGG + 6X HIS
Test: Western, dot blot, Octet (summary)

B1: no binding.

Target: T2, C. difficile toxin B from strain …
Test: not given

B3 showed a Kd of under 0.01 nM.

Target: T3, C. difficile toxin A from strain …
Test: not given

B8 and B9 cannot be ordered by Kd: under 0.01 nM for the first, under 0.01 nM for the second.

Target: T2, C. difficile toxin B from strain …
Test: cell-based or functional assay

Point of comparison: B1, “% completion TEER (T-84 cells)” value 91%. Against it:
- B3 — higher, 92%
- B2 — higher, 95%
- B4 — lower, 70%
- B5 — higher, 93%

Point of comparison: B5, “TEER NT50 (T-84 cells)” value 130. Against it:
- B3 — lower, 100
- B1 — higher, 270
- B2 — higher, 600
- B4 — higher, 200

Target: T3, C. difficile toxin A from strain …
Test: cell-based or functional assay

Point of comparison: B8, “% completion TEER (T-84 cells)” value 75%. Against it:
- B6 — higher, 80%
- B7 — higher, 80%

Point of comparison: B6, “TEER NT50, nM (T-84 cells)” value 1.3 nM. Against it:
- B7 — lower, < 1.3 nM
- B8 — within 1.5-fold, 1.8 nM
- B9 — 3.6-fold higher, 4.7 nM
- B10 — 5.6-fold higher, 7.3 nM

Target: T2, C. difficile toxin B from strain …
Test: cell-based or functional assay
Remark: another data set of the same source

Point of comparison: B2, “% completion cytotox (Vero cells)” value 100%. Against it:
- B1 — lower, 95%
- B4 — lower, 95%

Point of comparison: B2, “Cytotox NT50, pM (Vero cells)” value 100 pM. Against it:
- B1 — lower, 49 pM
- B4 — higher, 2900 pM

Target: T3, C. difficile toxin A from strain …
Test: cell-based or functional assay
Remark: another data set of the same source

Point of comparison: B10, “% completion cytotox (Vero cells)” value 75%. Against it:
- B6 — higher, 90%
- B7 — not separable, < 90%
- B8 — higher, 100%
- B9 — not separable, < 90%

Point of comparison: B9, “Cytotox NT50, pM (Vero cells)” value 3400 pM. Against it:
- B6 — lower, 980 pM
- B7 — lower, 48 pM
- B8 — lower, 55 pM
- B10 — lower, 2700 pM
